T1: mouse PD-1 protein (R&D Systems cat no. 1021-PD) (mouse, UniProt Q02242 25-167)
T1 construct: Bought protein
T1 sequence (looked up): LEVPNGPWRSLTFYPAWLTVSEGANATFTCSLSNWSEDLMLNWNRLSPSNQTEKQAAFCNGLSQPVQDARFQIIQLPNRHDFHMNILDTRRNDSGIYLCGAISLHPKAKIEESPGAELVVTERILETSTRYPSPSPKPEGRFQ

B1: 1.92b-4GS-1.62a (other)
chain: EVQLVESGGGLVKPGGSLRLSCAASGFTFSDESMTWMRQAPGKGLEWVSYISSGGGVKFYADSVKGRFTISRDNAKNSLYLQMNSLRAEDTAVYYCAREAPLRLGESPHDAFDISGQGTMVTVSSGGGGSGGGGSGGGGSGGGGSEVQLVESGGGVVRPGGSLRLSCAASGFTFDDYAMSWVRQAPGKGLEWVSGITWNAGSTGYADSVKGRFTISRDNAKNSLYLQMNSLRAEDTALYYCVRDKYSYAWSYDDFDIWGQGTMVTVSS
notes: Biparatopic VH-linker-VH; also called 1.92-4GS-1.62a; 1.92b-4gs-2.12a
B2: 1.92b-4GS-1.39a (other)
chain: EVQLVESGGGLVKPGGSLRLSCAASGFTFSDESMTWMRQAPGKGLEWVSYISSGGGVKFYADSVKGRFTISRDNAKNSLYLQMNSLRAEDTAVYYCAREAPLRLGESPHDAFDISGQGTMVTVSSGGGGSGGGGSGGGGSGGGGSEVQLVESGGGLVQPGRSLRLSCAASGFTFDDYALHWVRQAPGKDLEWVSGISWNGGSYGYADSVKGRFTISRDNAKNSLYLQMNSLRAEDTALYYCVREKGPGLTGSTADYYGLDAWGQGTMVTVSS
notes: Biparatopic VH-linker-VH; built from its parts here because it is not clear whether 1112 is the protein or the nucleic acid

Tests used:
[1] = molecular target: T2, human PD-1 expressed on cells (CHO TREX human PD1 cell line, full-length human PD-1 sequence) (human, UniProt Q15116 21-288); experiment: epitope competition assay on CHO human PD1 cells (labelled VH not specified) after 7 days in mouse serum
T2 construct: Also used for human PD-1 on Jurkat reporter cells, on PathHunter cells and on PHA-stimulated human CD4+ T cells; also called CHO human PD1 cells; CHO human PD-1 cells
T2 sequence (Q15116 21-288): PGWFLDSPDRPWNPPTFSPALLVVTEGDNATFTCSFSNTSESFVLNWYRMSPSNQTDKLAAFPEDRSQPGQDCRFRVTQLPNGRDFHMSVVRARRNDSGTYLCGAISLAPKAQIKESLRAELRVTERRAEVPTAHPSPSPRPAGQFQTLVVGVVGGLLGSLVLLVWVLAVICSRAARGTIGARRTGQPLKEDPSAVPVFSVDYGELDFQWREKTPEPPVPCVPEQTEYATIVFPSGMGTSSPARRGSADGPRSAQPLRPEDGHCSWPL
Procedure: (§1) Serum stability of VH and multivalent VH constructs was assessed by measurement of their activity following incubation for 0, 1, 4 or 7 days both in mouse (Sigma M5905) and human serum. […] Minimal loss of activity was observed following incubation with serum.

[2] = molecular target: T2, human PD-1 expressed on cells (CHO TREX …); experiment: epitope competition assay on CHO human PD1 cells (labelled VH not specified) after 4 days in mouse serum
Procedure: as §1

[3] = molecular target: T2, human PD-1 expressed on cells (CHO TREX …); experiment: flow cytometry, PHA-stimulated human CD4+ T cells, Donor 2
Procedure: (§2) Binding of monovalent single domain antibodies and multivalent binding agents to T cells was measured using flow cytometry. Peripheral blood mononuclear cells (PBMCs) were isolated from human blood by density gradient centrifugation then CD4+ T cells purified using a negative selection isolation kit according to the manufacturer's protocol (Miltenyi Biotech cat no 130-096-533). T-cells were stimulated with 2.5 μg/ml PHA for 3 days in RPMI media supplemented with 10% FBS, 2 mM Glutamine, 1× Pen/Strep. Cells were transferred into 96 well plates (75000 per well), blocked for 10 mins with PBS/1% BSA, then incubated with serially diluted VH in staining buffer (PBS/1% BSA) for 1 hour at 4° C. Cells were washed with staining buffer by centrifugation then incubated with 10 μg/ml biotinylated Anti His antibody for 40 mins at 4° C. Cells were washed again then stained with Streptavidin Alexa Fluor-488 (10 μg/ml) and 1:5000 diluted Live Dead near IR stain (Molecular Probes cat no. L10119) for 30 mins at 4° C. After further washing cells were fixed and fluorescence measured by flow cytometry.

[4] = molecular target: T2, human PD-1 expressed on cells (CHO TREX …); experiment: FMAT binding to CHO human PD-1 cells
[5] = molecular target: T1, mouse PD-1 protein (R&D Systems cat no. …); experiment: HTRF binding assay, 2 nM mouse PD1
Procedure: (§3) Purified VH were tested for their ability to bind to human PD1 (R&D Systems cat no. 1086-PD), cynomolgus PD-1 (Acro Biosystems cat no. PD-1-C5254) and mouse PD1 (R&D Systems cat no. 1021-PD) in an HTRF Binding assay format. All reagents and serially diluted VH were prepared in assay buffer containing PBS, 0.1% BSA and 0.4M Potassium Fluoride. Samples or assay buffer (non-specific binding) were incubated with 2 nM human/cynomolgus or mouse PD1, 1 nM Anti human-Fc Cryptate PAb (Cisbio cat. no. 61HFCKLB) and 30 nM anti His-D2 (CisBio cat no 61HISDLA) in black 384-shallow well assay plates for a minimum of 3 hours at room temperature. Time-resolved fluorescent emission at 620 nm and 665 nm was measured following excitation at 337 nm on the BMG PHERAstar plate reader. The HTRF ratio were calculated ((665 nm emission/620 nm emission)*10000) and the data corrected for (non-specific binding) to give the specific binding signal.

[6] = molecular target: T2, human PD-1 expressed on cells (CHO TREX …); experiment: flow cytometry, PHA-stimulated human CD4+ T cells, Donor 4
Procedure: as §2

[7] = molecular target: T3, recombinant human PD-1 Fc chimera (human, UniProt Q15116 25-167); experiment: HTRF binding assay, 2 nM recombinant PD1, anti His-D2 and anti human-Fc cryptate
T3 construct: Bought protein (R&D 1086-PD in the HTRF assay); also called human PD-1-hu Fc; huPD-1Fc; not shown: human Fc
T3 sequence (Q15116 25-167 limits assumed, change not shown): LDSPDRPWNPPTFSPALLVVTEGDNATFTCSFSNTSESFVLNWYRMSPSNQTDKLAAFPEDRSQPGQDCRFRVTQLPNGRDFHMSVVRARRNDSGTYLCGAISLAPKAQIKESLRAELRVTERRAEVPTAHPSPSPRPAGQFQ
Procedure: as §3

[8] = molecular target: T4, cynomolgus PD-1 recombinant protein (Acro Biosystems cat no. PD-1-C5254) (cynomolgus); experiment: as above
T4 construct: Bought protein; also called cyno PD1
Procedure: as §3

[9] = molecular target: T2, human PD-1 expressed on cells (CHO TREX …); experiment: epitope competition assay on CHO human PD1 cells (labelled VH not specified) after 1 day in mouse serum
Procedure: as §1

[10] = molecular target: T2, human PD-1 expressed on cells (CHO TREX …); experiment: flow cytometry, PHA-stimulated human CD4+ T cells, Donor 1
Procedure: as §2

[11] = molecular target: T2, human PD-1 expressed on cells (CHO TREX …); experiment: cell-based or functional assay
[12] = molecular target: T2, human PD-1 expressed on cells (CHO TREX …); experiment: FMAT epitope competition, CHO human PD1 cells; competitor Epitope 2 (2.1-Strep tagged protein)
Procedure: For the epitope competition assay reagents were prepared in FMAT assay buffer.
Multivalent molecules 1.92b-4GS-1.39a and 1.92b-4gs-1.62a were tested in the epitope competition assay as described above. 1.92b-4GS-1.39a and 1.92b-4gs-1.62 did cross compete with 1.1-Strap tagged and 2.1-Strap tagged proteins for binding to the cells.
Plates were incubated for a minimum of 1.5 hours at room temperature then fluorescence measured in the FL2 (502 nm-537 nm) and FL5 (677-800 nm) channels on the Mirrorball plate reader (TTP) following excitation at 488 nm and 640 nm. Data was expressed as a % of the total binding control (i.e. % control) after subtraction of the background signal determined from the non-specific binding control wells.

Row | Binder | IC50 [1] | IC50 [2] | EC50 [3] | EC50 [4] | binding result [5] | EC50 [6] | EC50 [7] | EC50 [8] | IC50 [9] | EC50 [10] | EC50 (M), NFAT-Luciferase reporter gene assay [11] | EC50 [12]
1 | B1 | 2 nM | 1.8 nM | 0.4 nM | 0.2 nM | no binding | 0.3 nM | 2.1 nM | 3.9 nM | 2 nM | 0.3 nM | 1.2e-09 M | 1 nM
2 | B2 | 1.8 nM | 1.6 nM | 0.6 nM | 0.2 nM | no binding | 0.5 nM | 2.1 nM | 3.7 nM | 1.3 nM | 0.5 nM | 2e-09 M | 1.2 nM

Reference: patent publication US20220306744A1 (CRESCENDO BIOLOGICS, published 2022)
